Measurements: patent US20250361282A1 (Bayer, published 2025)
Where “and” joins values, the source holds several entries; their conditions need not be identical. Equal entries are not always repeated.

How the values were obtained:
human NPRA [1] = target: T1, human NPRA (human, UniProt P16066 33-1061); experiment: cell-based or functional assay
T1 sequence (looked up): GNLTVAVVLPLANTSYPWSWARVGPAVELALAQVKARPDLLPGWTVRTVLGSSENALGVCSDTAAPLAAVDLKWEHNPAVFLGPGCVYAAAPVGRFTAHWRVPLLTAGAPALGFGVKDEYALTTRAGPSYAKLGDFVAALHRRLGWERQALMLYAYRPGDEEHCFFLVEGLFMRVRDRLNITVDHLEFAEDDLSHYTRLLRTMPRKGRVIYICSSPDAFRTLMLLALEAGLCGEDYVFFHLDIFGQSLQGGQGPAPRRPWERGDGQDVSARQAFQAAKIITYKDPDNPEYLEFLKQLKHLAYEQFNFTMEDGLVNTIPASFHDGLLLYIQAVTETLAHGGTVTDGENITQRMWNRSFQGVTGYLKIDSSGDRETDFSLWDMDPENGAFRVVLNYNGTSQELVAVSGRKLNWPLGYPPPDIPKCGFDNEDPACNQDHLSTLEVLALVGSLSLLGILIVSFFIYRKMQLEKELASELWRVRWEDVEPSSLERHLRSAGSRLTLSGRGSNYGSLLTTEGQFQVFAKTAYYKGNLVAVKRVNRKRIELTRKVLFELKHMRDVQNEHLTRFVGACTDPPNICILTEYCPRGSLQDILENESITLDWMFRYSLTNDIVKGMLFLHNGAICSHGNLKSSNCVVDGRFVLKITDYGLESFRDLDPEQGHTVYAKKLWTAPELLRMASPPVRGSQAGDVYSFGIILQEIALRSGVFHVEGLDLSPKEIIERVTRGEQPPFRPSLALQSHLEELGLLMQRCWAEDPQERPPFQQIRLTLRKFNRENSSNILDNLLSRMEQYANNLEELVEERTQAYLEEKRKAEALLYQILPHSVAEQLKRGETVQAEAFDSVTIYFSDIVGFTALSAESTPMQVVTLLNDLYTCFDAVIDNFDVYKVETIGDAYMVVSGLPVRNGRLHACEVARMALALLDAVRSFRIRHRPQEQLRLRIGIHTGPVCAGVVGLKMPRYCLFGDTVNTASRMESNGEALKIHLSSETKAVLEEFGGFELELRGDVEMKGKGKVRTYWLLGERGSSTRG

human NPRA [2] = target: T2, human NPRA (human, UniProt P16066 33-1061); experiment: cell-based or functional assay; remark: listed apart in the source
T2 sequence (looked up): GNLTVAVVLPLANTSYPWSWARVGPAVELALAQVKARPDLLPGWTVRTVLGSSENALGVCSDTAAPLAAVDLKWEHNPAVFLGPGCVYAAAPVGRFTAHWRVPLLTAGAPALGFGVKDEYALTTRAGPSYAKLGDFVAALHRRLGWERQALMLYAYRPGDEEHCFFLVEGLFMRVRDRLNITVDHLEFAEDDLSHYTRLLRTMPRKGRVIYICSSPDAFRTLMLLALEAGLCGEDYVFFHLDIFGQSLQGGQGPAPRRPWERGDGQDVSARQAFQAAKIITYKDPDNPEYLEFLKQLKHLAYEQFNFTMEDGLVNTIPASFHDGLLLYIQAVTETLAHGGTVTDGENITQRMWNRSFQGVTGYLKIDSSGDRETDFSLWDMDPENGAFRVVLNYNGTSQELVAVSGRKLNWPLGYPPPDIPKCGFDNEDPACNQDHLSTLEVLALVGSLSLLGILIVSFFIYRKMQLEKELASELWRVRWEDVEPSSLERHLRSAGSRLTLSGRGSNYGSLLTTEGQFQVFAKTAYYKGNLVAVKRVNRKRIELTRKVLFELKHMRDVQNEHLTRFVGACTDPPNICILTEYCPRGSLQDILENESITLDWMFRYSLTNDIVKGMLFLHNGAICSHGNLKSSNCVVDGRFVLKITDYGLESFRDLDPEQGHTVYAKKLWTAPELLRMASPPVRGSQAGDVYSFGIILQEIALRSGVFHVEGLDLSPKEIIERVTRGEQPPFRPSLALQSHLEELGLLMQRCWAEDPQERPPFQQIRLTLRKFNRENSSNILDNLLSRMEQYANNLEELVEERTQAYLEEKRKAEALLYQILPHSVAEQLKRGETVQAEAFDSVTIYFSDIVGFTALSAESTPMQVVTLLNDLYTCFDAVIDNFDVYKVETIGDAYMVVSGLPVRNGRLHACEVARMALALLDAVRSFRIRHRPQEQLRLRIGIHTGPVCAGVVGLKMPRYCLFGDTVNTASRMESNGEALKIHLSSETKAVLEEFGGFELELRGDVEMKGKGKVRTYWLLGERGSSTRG

B1: TPP-10361 (antibody, human IgG1, lambda)
heavy: not shown
light: QSVLTQPPSVSGAPGQRVTISCTGSSSNIGAGYDVHWYQQLPGTAPKLLIYGSGSGSGSGSGSPDGGSGGSLRRSSCFGGRMDRIGAQSGLGCNSFRYGSYGSGGSGSGSGNRPSGVPDRFSGSKSGTSASLAITGLQAEDEADYYCQSYDSSLSGVVFGGGTKLTVLGQPKAAPSVTLFPPSSEELQANKATLVCLISDFYPGAVTVAWKADSSPVKAGVETTTPSKQSNNKYAASSYLSLTPEQWKSHRSYSCQVTHEGSTVEKTVAPTECS
Human NPRA [1]
  activity rcs: 20%
  average rel logEC50: -0.1 delta logEC50 vs TPP-5661
  rel. activity rcs: -0.1 delta logEC50 vs TPP-5661
  rel. logEC50 pcs 5: -0.1 delta logEC50 vs TPP-5661

B2: TPP-10294 (antibody, human IgG1, lambda)
heavy: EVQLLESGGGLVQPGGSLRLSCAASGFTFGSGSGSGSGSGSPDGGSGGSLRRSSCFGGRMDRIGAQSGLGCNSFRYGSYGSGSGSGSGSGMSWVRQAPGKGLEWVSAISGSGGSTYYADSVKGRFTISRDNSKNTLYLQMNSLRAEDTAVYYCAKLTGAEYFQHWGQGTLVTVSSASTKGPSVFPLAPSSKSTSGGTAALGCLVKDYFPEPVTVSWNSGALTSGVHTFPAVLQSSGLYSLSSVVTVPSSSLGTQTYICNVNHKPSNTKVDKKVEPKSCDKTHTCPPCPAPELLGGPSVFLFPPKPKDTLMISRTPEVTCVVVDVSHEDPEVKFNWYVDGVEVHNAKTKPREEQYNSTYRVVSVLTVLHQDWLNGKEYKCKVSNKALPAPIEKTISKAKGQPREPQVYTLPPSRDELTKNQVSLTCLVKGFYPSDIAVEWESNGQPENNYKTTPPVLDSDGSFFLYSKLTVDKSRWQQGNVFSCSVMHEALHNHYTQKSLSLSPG
light: QSVLTQPPSVSGAPGQRVTISCTGSSSNIGAGYDVHWYQQLPGTAPKLLIYGNSNRPSGVPDRFSGSKSGTSASLAITGLQAEDEADYYCQSYDSSLSGVVFGGGTKLTVLGQPKAAPSVTLFPPSSEELQANKATLVCLISDFYPGAVTVAWKADSSPVKAGVETTTPSKQSNNKYAASSYLSLTPEQWKSHRSYSCQVTHEGSTVEKTVAPTECS
Human NPRA [2]
  activity rcs (cGMP, hNPRA-CHO k1): 41%
  average rel logEC50 (vs TPP-5661): -0.3
  rel. logEC50* pcs (vs TPP-5661, hNPRA-HEK293): -0.5 and -0.6 and -0.4
  rel. logEC50 pcs 4 (vs TPP-5661, hNPRA-CHO k1): -0.2
  rel. logEC50 pcs 7 (vs TPP-5661, hNPRA-CHO k1): 0

B3: TPP-13061 (antibody, human IgG1, lambda)
heavy: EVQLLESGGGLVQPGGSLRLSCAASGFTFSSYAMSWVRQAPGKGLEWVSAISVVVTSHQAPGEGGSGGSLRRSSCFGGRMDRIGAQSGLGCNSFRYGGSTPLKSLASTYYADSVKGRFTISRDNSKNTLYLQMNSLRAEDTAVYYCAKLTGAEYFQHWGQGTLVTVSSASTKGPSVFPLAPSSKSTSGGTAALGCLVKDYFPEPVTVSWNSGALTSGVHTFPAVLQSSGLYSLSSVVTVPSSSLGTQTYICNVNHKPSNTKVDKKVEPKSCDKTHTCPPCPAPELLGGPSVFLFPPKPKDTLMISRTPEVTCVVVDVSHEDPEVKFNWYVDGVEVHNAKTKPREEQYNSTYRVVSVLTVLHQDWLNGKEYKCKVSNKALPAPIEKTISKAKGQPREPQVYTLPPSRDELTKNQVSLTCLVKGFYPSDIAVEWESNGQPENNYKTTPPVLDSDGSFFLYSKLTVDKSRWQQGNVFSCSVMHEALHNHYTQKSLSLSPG
light: QSVLTQPPSVSGAPGQRVTISCTGSSSNIGAGYDVHWYQQLPGTAPKLLIYGNSNRPSGVPDRFSGSKSGTSASLAITGLQAEDEADYYCQSYDSSLSGVVFGGGTKLTVLGQPKAAPSVTLFPPSSEELQANKATLVCLISDFYPGAVTVAWKADSSPVKAGVETTTPSKQSNNKYAASSYLSLTPEQWKSHRSYSCQVTHEGSTVEKTVAPTECS
Human NPRA [2]
  average rel logEC50 (vs TPP-5661): -0.7
  rel. logEC50* pcs (vs TPP-5661, hNPRA-HEK293): -0.6 and -0.8

B4: TPP-13054 (antibody, human IgG1, lambda)
heavy: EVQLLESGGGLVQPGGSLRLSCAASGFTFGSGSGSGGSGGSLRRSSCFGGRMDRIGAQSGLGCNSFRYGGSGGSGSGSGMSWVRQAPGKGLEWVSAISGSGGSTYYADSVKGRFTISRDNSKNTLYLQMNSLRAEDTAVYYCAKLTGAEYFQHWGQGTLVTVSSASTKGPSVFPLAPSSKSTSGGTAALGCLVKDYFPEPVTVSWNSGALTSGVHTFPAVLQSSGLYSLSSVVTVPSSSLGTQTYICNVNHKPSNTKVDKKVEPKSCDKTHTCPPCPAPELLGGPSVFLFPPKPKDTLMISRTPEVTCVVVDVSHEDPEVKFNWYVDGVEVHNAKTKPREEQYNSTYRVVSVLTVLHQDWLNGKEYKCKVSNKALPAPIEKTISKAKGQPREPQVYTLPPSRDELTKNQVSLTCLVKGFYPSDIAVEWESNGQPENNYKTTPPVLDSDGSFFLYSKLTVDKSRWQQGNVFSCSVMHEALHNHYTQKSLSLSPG
light: QSVLTQPPSVSGAPGQRVTISCTGSSSNIGAGYDVHWYQQLPGTAPKLLIYGNSNRPSGVPDRFSGSKSGTSASLAITGLQAEDEADYYCQSYDSSLSGVVFGGGTKLTVLGQPKAAPSVTLFPPSSEELQANKATLVCLISDFYPGAVTVAWKADSSPVKAGVETTTPSKQSNNKYAASSYLSLTPEQWKSHRSYSCQVTHEGSTVEKTVAPTECS
Human NPRA [2]
  average rel logEC50 (vs TPP-5661): -0.8
  rel. logEC50* pcs (vs TPP-5661, hNPRA-HEK293): -0.7 and -0.8

B5: TPP-10765 (antibody, human IgG1, lambda)
heavy: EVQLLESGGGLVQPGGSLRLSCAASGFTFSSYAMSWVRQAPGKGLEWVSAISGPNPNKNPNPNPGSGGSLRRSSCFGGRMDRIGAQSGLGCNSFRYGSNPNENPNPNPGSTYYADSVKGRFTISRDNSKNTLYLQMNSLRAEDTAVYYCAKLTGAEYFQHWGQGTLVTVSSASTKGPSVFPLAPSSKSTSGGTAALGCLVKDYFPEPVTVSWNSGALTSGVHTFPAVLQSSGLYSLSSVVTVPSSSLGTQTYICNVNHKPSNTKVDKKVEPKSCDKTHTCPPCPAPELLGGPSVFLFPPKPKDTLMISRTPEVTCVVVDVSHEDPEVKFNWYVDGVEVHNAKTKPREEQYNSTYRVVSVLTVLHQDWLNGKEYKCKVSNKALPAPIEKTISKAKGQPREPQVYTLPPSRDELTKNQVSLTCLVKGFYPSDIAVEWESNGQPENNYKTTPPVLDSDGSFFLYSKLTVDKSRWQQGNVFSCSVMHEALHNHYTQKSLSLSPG
light: QSVLTQPPSVSGAPGQRVTISCTGSSSNIGAGYDVHWYQQLPGTAPKLLIYGNSNRPSGVPDRFSGSKSGTSASLAITGLQAEDEADYYCQSYDSSLSGVVFGGGTKLTVLGQPKAAPSVTLFPPSSEELQANKATLVCLISDFYPGAVTVAWKADSSPVKAGVETTTPSKQSNNKYAASSYLSLTPEQWKSHRSYSCQVTHEGSTVEKTVAPTECS
Human NPRA [2]
  activity rcs (cGMP, hNPRA-CHO k1): 72%
  average rel logEC50 (vs TPP-5661): -0.4
  rel. activity rcs (delta logEC50 vs TPP-5661, hNPRA-CHO k1): -0.9
  rel. logEC50 pcs 5 (vs TPP-5661, hNPRA-CHO k1): -0.9
  rel. logEC50 pcs 6 (vs TPP-5661, hNPRA-CHO k1): -0.4
  rel. logEC50 pcs 7 (vs TPP-5661, hNPRA-CHO k1): 0.2

B6: TPP-10274 (antibody)
heavy: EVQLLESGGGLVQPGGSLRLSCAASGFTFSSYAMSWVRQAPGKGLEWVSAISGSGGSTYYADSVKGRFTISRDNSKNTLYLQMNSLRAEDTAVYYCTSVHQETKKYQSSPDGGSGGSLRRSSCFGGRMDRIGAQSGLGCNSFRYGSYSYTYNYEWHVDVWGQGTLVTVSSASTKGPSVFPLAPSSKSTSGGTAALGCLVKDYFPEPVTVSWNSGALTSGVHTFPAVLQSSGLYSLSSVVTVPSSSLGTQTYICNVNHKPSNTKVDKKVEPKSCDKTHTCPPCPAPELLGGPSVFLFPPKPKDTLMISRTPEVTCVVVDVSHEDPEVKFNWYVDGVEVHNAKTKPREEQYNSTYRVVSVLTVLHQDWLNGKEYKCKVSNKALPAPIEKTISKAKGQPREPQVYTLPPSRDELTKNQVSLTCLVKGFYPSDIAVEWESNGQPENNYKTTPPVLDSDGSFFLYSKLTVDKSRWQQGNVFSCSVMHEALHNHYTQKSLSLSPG
light: QSVLTQPPSVSGAPGQRVTISCTGSSSNIGAGYDVHWYQQLPGTAPKLLIYGNSNRPSGVPDRFSGSKSGTSASLAITGLQAEDEADYYCQSYDSSLSGVVFGGGTKLTVLGQPKAAPSVTLFPPSSEELQANKATLVCLISDFYPGAVTVAWKADSSPVKAGVETTTPSKQSNNKYAASSYLSLTPEQWKSHRSYSCQVTHEGSTVEKTVAPTECS
Human NPRA [2]
  activity rcs (cGMP, hNPRA-CHO k1): 71%
  average rel logEC50 (vs TPP-5661): -0.1
  rel. logEC50 pcs 2 (vs TPP-5661, hNPRA-CHO k1): -0.3
  rel. logEC50 pcs 3 (vs TPP-5661, hNPRA-CHO k1): -0.2
  rel. logEC50 pcs 7 (vs TPP-5661, hNPRA-CHO k1): 0

B7: TPP-5661 (antibody)
heavy: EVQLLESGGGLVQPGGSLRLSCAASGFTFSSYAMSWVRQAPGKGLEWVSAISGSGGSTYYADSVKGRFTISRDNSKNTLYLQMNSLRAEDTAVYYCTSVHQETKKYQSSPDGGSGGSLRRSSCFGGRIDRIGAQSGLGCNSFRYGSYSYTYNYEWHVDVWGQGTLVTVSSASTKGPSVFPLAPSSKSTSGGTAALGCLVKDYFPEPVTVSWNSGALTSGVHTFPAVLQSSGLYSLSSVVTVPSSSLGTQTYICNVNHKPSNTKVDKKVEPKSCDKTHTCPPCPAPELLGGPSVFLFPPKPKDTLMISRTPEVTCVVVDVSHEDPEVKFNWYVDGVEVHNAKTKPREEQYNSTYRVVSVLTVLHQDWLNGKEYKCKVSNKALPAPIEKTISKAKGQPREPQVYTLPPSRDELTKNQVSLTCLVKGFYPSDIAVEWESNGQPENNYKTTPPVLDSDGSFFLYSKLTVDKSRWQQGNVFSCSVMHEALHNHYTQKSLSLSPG
light: QSVLTQPPSVSGAPGQRVTISCTGSSSNIGAGYDVHWYQQLPGTAPKLLIYGNSNRPSGVPDRFSGSKSGTSASLAITGLQAEDEADYYCQSYDSSLSGVVFGGGTKLTVLGQPKAAPSVTLFPPSSEELQANKATLVCLISDFYPGAVTVAWKADSSPVKAGVETTTPSKQSNNKYAASSYLSLTPEQWKSHRSYSCQVTHEGSTVEKTVAPTECS
Human NPRA [1]
  activity rcs: 36%
  average rel logEC50: 0 delta logEC50 vs TPP-5661
  rel. activity rcs: 0 delta logEC50 vs TPP-5661
  rel. logEC50* pcs: 0 delta logEC50 vs TPP-5661
  rel. logEC50 ics: 0 delta logEC50 vs TPP-5661
  rel. logEC50 pcs 1: 0 delta logEC50 vs TPP-5661
  rel. logEC50 pcs 2: 0 delta logEC50 vs TPP-5661
  rel. logEC50 pcs 3: 0 delta logEC50 vs TPP-5661
  rel. logEC50 pcs 4: 0 delta logEC50 vs TPP-5661
  rel. logEC50 pcs 5: 0 delta logEC50 vs TPP-5661
  rel. logEC50 pcs 6: 0 delta logEC50 vs TPP-5661
  rel. logEC50 pcs 7: 0 delta logEC50 vs TPP-5661
  rel. logEC50 pcs 8: 0 delta logEC50 vs TPP-5661
  rel. logEC50 pcs 9: 0 delta logEC50 vs TPP-5661
